Literature values, collected in patent publication US11807856B2, “Recombinant Pichia pastoris strain and method for producing active pediocin PA-1” (VIET NAM NATIONAL UNIVERSITY HO CHI MINH CITY, priority 2019, dated 2023).
Read-outs that look alike come from different tables or passages of the source. Ends that are not written are not given here.

Key:
[1] = for activity after heat treatment: 100° C. for 60 minutes (1 hour); for antimicrobial activities after heat treatment: 121° C.
[2] = pH 2-8

## native pediocin PA-1: class IIa bacteriocin, 4.6 kDa peptide with 44 amino acids, produced by Pediococcus acidilactici PAC1.0 (KYYGNGVTCGKHSCSVDWGKATTCIINNGAMAWATGGHQGNHKC; ends and bridges not checked; cysteine pairing not given here; UniProt P29430 19-62, looked up)
[1]; listed as prior-art pediocin PA-1
  activity after heat treatment: stable
[1]; produced by Pediococcus acidilactici PAC1.0
  activity after heat treatment: remain its full activities
[1]; 20 minutes treatment, listed as prior-art pediocin PA-1
  antimicrobial activities after heat treatment: lost all activity
[1]; 20 minutes treatment, produced by Pediococcus acidilactici PAC1.0
  antimicrobial activities after heat treatment: completely disappeared
[1]; after 15 minutes
  antimicrobial activities after heat treatment: gradually reduced
[2]
  time stable at pH levels of 2-8: at least 2 hours
